Sequences and labels used below:
T1: PUF4 RNA-binding domain (Saccharomyces cerevisiae, UniProt P25339 537-888)
T1 sequence: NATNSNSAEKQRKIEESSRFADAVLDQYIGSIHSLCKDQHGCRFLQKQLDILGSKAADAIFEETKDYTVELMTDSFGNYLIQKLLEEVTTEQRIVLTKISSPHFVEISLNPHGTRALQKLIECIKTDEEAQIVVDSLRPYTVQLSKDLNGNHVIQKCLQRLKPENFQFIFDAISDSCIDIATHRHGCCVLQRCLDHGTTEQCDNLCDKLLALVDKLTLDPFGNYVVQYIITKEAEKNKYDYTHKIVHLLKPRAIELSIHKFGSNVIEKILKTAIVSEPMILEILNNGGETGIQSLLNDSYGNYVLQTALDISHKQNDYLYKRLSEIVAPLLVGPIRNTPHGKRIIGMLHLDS

B1: Ic_S4_P5E.1_K5.1_C5.1_H5.1_A5.1_[T6A]_[A7C]_F5.1_[T8C]_[T9A]_[A10T]_T5.1 (ssRNA)
RNA: UUUGACAACUGAUCGUUCUUUCUUGUAUACCAUUUCUUUCUCGAUCAGUUGUCUUU
B2: Ic_S4_P5E.1_K5.1_C5.1_H5.1_A5.1_[T5A]_[T6A]_[A7C]_F5.1_[T8G]_[T9C]_[A10C]_T5.1 (ssRNA)
RNA: UUUGACAACUGAUCGUUCUUUCUUGUAAACGCCUUCUUUCUCGAUCAGUUGUCUUU
B3: Ic_S4_P5E.1_K5.1_C5.1_H5.1_A5.1_[A7C]_F5.1_[T8C]_[T9C]_T5.1 (ssRNA)
RNA: UUUGACAACUGAUCGUUCUUUCUUGUAUUCCCAUUCUUUCUCGAUCAGUUGUCUUU
B4: Ic_S4_P5E.1_K5.1_C5.1_H5.1_A5.1_[T5C]_[A7T]_F5.1_[T8C]_T5.1 (ssRNA)
RNA: UUUGACAACUGAUCGUUCUUUCUUGUACUUCUAUUCUUUCUCGAUCAGUUGUCUUU
B5: Ic_S4_P5E.1_K5.1_C5.1_H5.1_A5.1_[T5A]_[T6C]_[A7G]_F5.1_[T9A]_[A10G]_T5.1 (ssRNA)
RNA: UUUGACAACUGAUCGUUCUUUCUUGUAACGUAGUUCUUUCUCGAUCAGUUGUCUUU
B6: Ic_S4_P5E.1_K5.1_C5.1_H5.1_A5.1_[T5C]_[T6A]_[A7C]_F5.1_[T8C]_[A10G]_T5.1 (ssRNA)
RNA: UUUGACAACUGAUCGUUCUUUCUUGUACACCUGUUCUUUCUCGAUCAGUUGUCUUU
B7: Ic_S4_P5E.1_K5.1_C5.1_H5.1_A5.1_[A7T]_F5.1_[T8A]_[A10G]_T5.1 (ssRNA)
RNA: UUUGACAACUGAUCGUUCUUUCUUGUAUUUAUGUUCUUUCUCGAUCAGUUGUCUUU
B8: Ic_S4_P5E.1_K5.1_C5.1_H5.1_A5.1_[T6C]_[A7T]_F5.1_[T8A]_[T9G]_[A10C]_T5.1 (ssRNA)
RNA: UUUGACAACUGAUCGUUCUUUCUUGUAUCUAGCUUCUUUCUCGAUCAGUUGUCUUU
B9: Ic_S4_P5E.1_K5.1_C5.1_H5.1_A5.1_[T5A]_[T6C]_[A7T]_F5.1_[T8C]_[T9C]_[A10G]_T5.1 (ssRNA)
RNA: UUUGACAACUGAUCGUUCUUUCUUGUAACUCCGUUCUUUCUCGAUCAGUUGUCUUU
B10: Ic_S4_P5E.1_K5.1_C5.1_H5.1_A5.1_[T5A]_[A7C]_F5.1_[T8C]_[T9G]_[A10G]_T5.1 (ssRNA)
RNA: UUUGACAACUGAUCGUUCUUUCUUGUAAUCCGGUUCUUUCUCGAUCAGUUGUCUUU
B11: Ic_S4_P5E.1_K5.1_C5.1_H5.1_A5.1_[T5C]_F5.1_[T8A]_[T9A]_[A10T]_T5.1 (ssRNA)
RNA: UUUGACAACUGAUCGUUCUUUCUUGUACUAAAUUUCUUUCUCGAUCAGUUGUCUUU
B12: Ic_S4_P5E.1_K5.1_C5.1_H5.1_A5.1_[A7T]_F5.1_[T8C]_[T9A]_T5.1 (ssRNA)
RNA: UUUGACAACUGAUCGUUCUUUCUUGUAUUUCAAUUCUUUCUCGAUCAGUUGUCUUU
B13: Ic_S4_P5E.1_K5.1_C5.1_H5.1_A5.1_[T6A]_[A7T]_F5.1_[T8A]_[T9A]_T5.1 (ssRNA)
RNA: UUUGACAACUGAUCGUUCUUUCUUGUAUAUAAAUUCUUUCUCGAUCAGUUGUCUUU
B14: Ic_S4_P5E.1_K5.1_C5.1_H5.1_A5.1_[T5G]_[A7C]_F5.1_[T8G]_T5.1 (ssRNA)
RNA: UUUGACAACUGAUCGUUCUUUCUUGUAGUCGUAUUCUUUCUCGAUCAGUUGUCUUU
B15: Ic_S4_P5E.1_K5.1_C5.1_H5.1_A5.1_[T5G]_[A7C]_F5.1_[T8G]_[A10G]_T5.1 (ssRNA)
RNA: UUUGACAACUGAUCGUUCUUUCUUGUAGUCGUGUUCUUUCUCGAUCAGUUGUCUUU
B16: Ic_S4_P5E.1_K5.1_C5.1_H5.1_A5.1_[T5C]_[T6A]_[A7T]_F5.1_[T8G]_[A10T]_T5.1 (ssRNA)
RNA: UUUGACAACUGAUCGUUCUUUCUUGUACAUGUUUUCUUUCUCGAUCAGUUGUCUUU
B17: Ic_S4_P5E.1_K5.1_C5.1_H5.1_A5.1_[T6C]_[A7G]_F5.1_[T8C]_[T9C]_[A10G]_T5.1 (ssRNA)
RNA: UUUGACAACUGAUCGUUCUUUCUUGUAUCGCCGUUCUUUCUCGAUCAGUUGUCUUU
B18: Ic_S4_P5E.1_K5.1_C5.1_H5.1_A5.1_[T5C]_[T6C]_[A7C]_F5.1_[T9A]_[A10G]_T5.1 (ssRNA)
RNA: UUUGACAACUGAUCGUUCUUUCUUGUACCCUAGUUCUUUCUCGAUCAGUUGUCUUU

The values below come from paper PMC9352680, “A comprehensive thermodynamic model for RNA binding by the Saccharomyces cerevisiae Pumilio protein PUF4”.

In the series the target is T1, PUF4 RNA-binding domain. In words: Mg; RNA-MaP; 20 mM Na-HEPES pH 7.4, 30 mM KOAc, 0.75 mM MgCl2, 0.1% Tween-20, 5% glycerol, 0.1 mg/mL BSA, 2 mM DTT; 25 C; 0.0125-409.6 nM protein. As to conditions: tags: N-His6-TEV cleaved; C-SNAP kept, Cy3B-labelled; label: tethered on chip by stalled RNA polymerase.
With B1, the Kd amounted to 15.4 nM. In turn, B2 returned a Kd of 586 nM. This Kd is about 38-fold higher than that of the molecule before. For B3 the value was 141 nM; for B4, 2.44 nM; for B5, 114 nM.

Molecule B6 came in with a Kd of 81 nM.

B7 had a Kd of 12.4 nM. Against the preceding molecule, the Kd is about 6.5-fold lower. In turn, B8 came in with a Kd of 47.4 nM. As to B9, the Kd was greater than 2300 nM.

B10 registered a Kd greater than 2300 nM. B11 showed a Kd of 18.5 nM. This lies in the double-digit nanomolar range.

As to B12, the Kd was 452 nM.

As for B13, the Kd came to 3.86 nM. B14 registered a Kd of 26.3 nM. For B15 the value was 486 nM; for B16, 6.77 nM. For B17, the Kd is 1730 nM.

B18 displayed a Kd of 6.26 nM. The molecule UCUCUUUGUAUCUUGUCUCUU (ssRNA) [Ib_S1_P4E.1_K4.1_C4.1_H4.1_A4.1_[A6C]_F4.1_[A9G]_T4.1] had a Kd of 25.9 nM. In the case of UCUCUUUGUAUGUUGUCUCUU (ssRNA) [Ib_S1_P4E.1_K4.1_C4.1_H4.1_A4.1_[A6G]_F4.1_[A9G]_T4.1], binding was put at a Kd of 218 nM.
